Measured values from ChEMBL document CHEMBL1145290, “Beta-glucuronidase-cleavable prodrugs of O6-benzylguanine and O6-benzyl-2'-deoxyguanosine” (J Med Chem, 2005).

Assays:
[1] = substrate: O=C(Nc1nc(OCc2ccccc2)c2ncn([C@H]3C[C@H](O)[C@@H](CO)O3)c2n1)OCc1ccc(O[C@@H]2O[C@H](C(=O)O)[C@@H](O)[C@H](O)[C@H]2O)c([N+](=O)[O-])c1; assay: (§1) Vmax value using Escherichia coli beta-glucuronidase obtained at 370 C in MOPS buffer of pH 7.0
[2] = substrate: O=C(Nc1nc(OCc2ccccc2)c2[nH]cnc2n1)OCc1ccc(O[C@@H]2OC(C(=O)O)[C@@H](O)C(O)[C@@H]2O)c([N+](=O)[O-])c1; assay: as §1
[3] = substrate: O=C(Nc1nc(OCc2ccccc2)c2ncn([C@H]3C[C@H](O)[C@@H](CO)O3)c2n1)OCc1ccc(O[C@@H]2O[C@H](C(=O)O)[C@@H](O)[C@H](O)[C@H]2O)c([N+](=O)[O-])c1; assay: (§2) KM value using Escherichia coli beta-glucuronidase obtained at 370 C in MOPS buffer of pH 7.0
[4] = substrate: O=C(Nc1nc(OCc2ccccc2)c2[nH]cnc2n1)OCc1ccc(O[C@@H]2OC(C(=O)O)[C@@H](O)C(O)[C@@H]2O)c([N+](=O)[O-])c1; assay: as §2
[5] = substrate: O=C(Nc1nc(OCc2ccccc2)c2ncn([C@H]3C[C@H](O)[C@@H](CO)O3)c2n1)OCc1ccc(O[C@@H]2O[C@H](C(=O)O)[C@@H](O)[C@H](O)[C@H]2O)c([N+](=O)[O-])c1; assay: (§3) KM value using bovine liver beta-glucuronidase obtained at 370 C in MOPS buffer of pH 7.0; settings: Bos taurus
[6] = substrate: O=C(Nc1nc(OCc2ccccc2)c2[nH]cnc2n1)OCc1ccc(O[C@@H]2OC(C(=O)O)[C@@H](O)C(O)[C@@H]2O)c([N+](=O)[O-])c1; assay: as §3; settings: Bos taurus
[7] = substrate: O=C(Nc1nc(OCc2ccccc2)c2ncn([C@H]3C[C@H](O)[C@@H](CO)O3)c2n1)OCc1ccc(O[C@@H]2O[C@H](C(=O)O)[C@@H](O)[C@H](O)[C@H]2O)c([N+](=O)[O-])c1; assay: (§4) Vmax value using bovine liver beta-glucuronidase obtained at 370 C in MOPS buffer of pH 7.0; settings: Bos taurus
[8] = substrate: O=C(Nc1nc(OCc2ccccc2)c2[nH]cnc2n1)OCc1ccc(O[C@@H]2OC(C(=O)O)[C@@H](O)C(O)[C@@H]2O)c([N+](=O)[O-])c1; assay: as §4; settings: Bos taurus

Protein | Vmax [1] | Vmax [2] | Km [3] | Km [4] | Km [5] | Km [6] | Vmax [7] | Vmax [8]
Beta-glucuronidase (Escherichia coli (strain K12)), P05804 (protein) MLRPVETPTREIKKLDGLWAFSLDRENCGIDQRWWESALQESRAIAVPGSFNDQFADADIRNYAGNVWYQREVFIPKGWAGQRIVLRFDAVTHYGKVWVNNQEVMEHQGGYTPFEADVTPYVIAGKSVRITVCVNNELNWQTIPPGMVITDENGKKKQSYFHDFFNYAGIHRSVMLYTTPNTWVDDITVVTHVAQDCNHASVDWQVVANGDVSVELRDADQQVVATGQGTSGTLQVVNPHLWQPGEGYLYELCVTAKSQTECDIYPLRVGIRSVAVKGEQFLINHKPFYFTGFGRHEDADLRGKGFDNVLMVHDHALMDWIGANSYRTSHYPYAEEMLDWADEHGIVVIDETAAVGFNLSLGIGFEAGNKPKELYSEEAVNGETQQAHLQAIKELIARDKNHPSVVMWSIANEPDTRPQGAREYFAPLAEATRKLDPTRPITCVNVMFCDAHTDTISDLFDVLCLNRYYGWYVQSGDLETAEKVLEKELLAWQEKLHQPIIITEYGVDTLAGLHSMYTDMWSEEYQCAWLDMYHRVFDRVSAVVGEQVWNFADFATSQGILRVGGNKKGIFTRDRKPKSAAFLLQKRWTGMNFGEKPQQGGKQ | 11 µmol/mg/min | 7.8 µmol/mg/min | 41 µM | 17 µM | – | – | – | –
Beta-glucuronidase (Bos taurus), A3KMY8 (protein) MLRGSAGAWAVLGPLLWGCGLSLLQGGMLYPRESRSRERKELDGLWSFRADFSDNRRQGFEQQWYRAPLRESGPTLDMPVPSSFNDVGQDGQLRSFVGWVWYEREITLPQRWTEDLGTRVVLRIGSAHYYAIVWVNGVHVLEHEGGHLPFEADISKLVQSGPLSSCRITIAINNTLSPHTLPPGTILYKTDPSMYPKGYFVQNTKFDFFNYAGLHRSVLLYTTPTTYIDDITVTTDMDQDIGLVNYQIIVQGSDHFQVDVSLLDEEGKVMAKGAGAEGQLQVPSAHLWWPYLMHEHPAYLYSLEVKLTAQTAVGPVSDFYTLPVGIRTVAVTKSQFLINGKPFYFRGVNKHEDADIRGKGFDWPLLVKDFNLLRWLGANAFRTSHYPYSEEVLQLCDRYGIVVIDESPGVGIVLVESFSNVSLQHHLEVMEEMIRRDKNHPAVVMWSLANEPASFLKPAGYYFKTLIAHTKALDPSRPVTFVTNTNYEADLGAPYVDIICVNSYYSWYHDYGHMEVIQLQLATQFENWYKAYQKPMIQSEYGADAIEGFHEDPPLMFSEEYQKGLLQQYHVVLDQKRKEYVVGELIWNFADFMTNQSPVRMIGNRKGIFTRQRQPKSAAFLLRERYWKLANETRYQRSAVTSQCVGSGLFTV | – | – | – | – | 360 µM | 240 µM | 0.39 µmol/mg/min | 0.27 µmol/mg/min
